This data set concerns the target Plasmodium falciparum lactate dehydrogenase (PfLDH) (Plasmodium falciparum) (UniProt Q27743). The experiment in a line: APTEC plate capture assay. As to conditions: 2x PBS binding buffer (recombinant PfLDH), 1 h, streptavidin plate coated with DNA, PBST (0.1% Tween-20) washes, absorbance 570 nm; blood: 1:1 with PBS 0.5% ….

Sequence of Plasmodium falciparum lactate dehydrogenase (PfLDH) (Plasmodium falciparum) (Q27743 whole entry): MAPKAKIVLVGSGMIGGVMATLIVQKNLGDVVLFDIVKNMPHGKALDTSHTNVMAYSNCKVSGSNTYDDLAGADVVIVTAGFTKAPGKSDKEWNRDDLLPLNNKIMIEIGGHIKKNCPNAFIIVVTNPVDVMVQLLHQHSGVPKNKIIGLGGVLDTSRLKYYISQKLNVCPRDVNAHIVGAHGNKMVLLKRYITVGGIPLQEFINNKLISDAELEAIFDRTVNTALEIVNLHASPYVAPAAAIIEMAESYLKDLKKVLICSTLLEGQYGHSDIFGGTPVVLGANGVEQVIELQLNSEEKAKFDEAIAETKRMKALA

Broadly, the Kd is the concentration at which binding is half-saturated. In the case of “GCAACAGAGCCCTATTCTGTCTCAGTCCACCGGGTTAGGAAACGCGAGTCAGT / CTGGGCGGTAGAACCATAGTGACCCAGCCGTCTACTTCCCTAACGCCTGCGTGAATAGGGCTCTGTTGC / CTGGGCGGTAGAACCATAGTGACCCAGCCGTCTACTTGATCTCAACTCAGTTACCCGGTGGACTGAGAC / CTGGGCGGTAGAACCATAGTGACCCAGCCGTCTACTTTCATCTGGGGCCTTTACTGACTCGCGTTTCCT / TAAGGCCCCAGATGATAAACCCAGGCCGGCCCT / TCGCTCGACAGAGATACTATTAGTACCAGGCCCGATAGGGCCGGCCTGGGTTT / TCGCAGGCGTTAGGGTTCGGGCCTGGTACTAAT / TACTGAGTTGAGATCTGTATCTCTGTCGAGCGA [prism with three aptamers]”, the Kd came to 1.38 nM.

Source of the values: article PMC6099927.
